Reference: article PMC10846947 (Journal of Alzheimer's disease : JAD, 2022)

Experiments:
[1] = mouse, in vivo
[2] = mouse, in vivo; remark: listed apart in the source
[3] = mouse, in vivo; remark: listed apart in the source
[4] = mouse, in vivo; remark: listed apart in the source
[5] = mouse, in vivo, iv

Substance	decrease in PS values in various brain regions at 52 weeks [1]	PS product in the whole brain, WT versus APP/PS1 mice [2]	PS product in the whole brain, lower in APP/PS1 mice compared to WT mice [2]	decrease in PS values at 52 weeks [2]	increase in plasma AUC at 52 weeks [3]	plasma AUC of 125I-Aβ40 relative to 125I-Aβ42 [3]	increase in PS values in various brain regions at 52 weeks [1]	decrease in PS values at various brain regions at 24 weeks [2]	decrease in PS products at various brain regions at 24 weeks compared to 8 weeks [4]	decrease in brain influx clearance (Ki) at 104 weeks compared to 12 weeks [5]
^125I-Aβ40: custom synthesized amyloid-β 40 peptide, soluble form, radiolabeled with 125I by the chloramine-T procedure	~ 4 fold	no differences	~ 1.5 fold	~ 1.5 fold	~ 7 fold	~ 12 fold				
^125I-Aβ42: custom synthesized amyloid-β 42 peptide, soluble form, radiolabeled with 125I by the chloramine-T procedure		no significant differences					~ 1.5 fold	~ 1.5 fold		
^125I-insulin: human insulin (Sigma-Aldrich) radiolabeled with 125I by the chloramine-T procedure									~ 5 fold	~ 2 fold
